The text below walks through data of US20140134176A1 (Pfizer, published 2014).

Bounds are passed on as bounds.

Experiment [1] addresses T1, mouse PDGF-BB (mouse, UniProt P31240 82-190).
T1 construct: also called muBB; Mu PDGF-BB
As to the kind of experiment: SPR (Biacore 2000), antibody captured via anti-human IgG, PDGF injected. As to the method:
(§1) Anti-human (A-D, I-K) or anti-mouse (E-H) IgG antibodies were immobilized in flow cells of CM5 sensor chips. 1 μg/mL of MOR8457-IKR-hIgG1-3m (A-D), MOR8457-mIgG1 (E-H) or MOR8457-GL-hIgG1-3m (I-K) was injected independently over the respective anti-human or anti-mouse surface for 10 seconds resulting in a stable anti-PDGF surface between 50-100 RU. Different concentration of PDGF proteins, 0.25, 0.5, and 1 nM, was then injected over the antibody surface for 2 minutes at a flow rate of 100 μl/min for binding. The complex was allowed to dissociate for 10 minutes. The surface was regenerated with a 30 second injection of 10 mM magnesium chloride leaving the surface ready for another round of anti-PDGF antibody capture and PDGF binding kinetics. Each of these three antibodies bound tightly to human (A, E, I), mouse (B, F, J) and rat (C, G, K) PDGF-BB. MOR8457-IKR-hIgG1-3m (D) and MOR8457-mIgG1 (H) bound to human PDGF-AB. Each sensorgram shown is one representative of three independent experiments.
(§2) In order to test the specificity and cross species reactivity, the binding affinities of three MOR8457 IgG variants, MOR8457-IKR-hIgG1-3m, MOR8457-mIgG1, and MOR8457-GL-hIgG1-3m, to different human PDGF ligands, including human PDGF-AA, -AB, -DD, as well as rat PDGF-BB (all obtained from R&D systems, Minneapolis, Minn.) and mouse PDGF-BB (Invitrogen, Carlsbad, Calif.) were tested. Briefly, anti-human or anti-mouse IgG (GE Healthcare) antibodies were immobilized in adjacent flow cells of a CM5 sensor chip between 8000-10,000 resonance units (RU) using amine coupling as directed by the manufacturer. Antibodies were diluted into PBS-NET (10 mM Phosphate pH 7.4, 287 mM NaCl, 2.7 mM KCl, 3.2 mM EDTA, 0.01% Tween 20) to 1 μg/mL and injected independently over the respective anti-human or anti-mouse surface for 10 seconds resulting in a stable anti-PDGF surface between 50-100 RU. PDGF proteins were diluted to 1 nM in PBS-NET and serially diluted two-fold to 0.25 nM. Each concentration of PDGF was then injected over the antibody surface for 2 minutes at a flow rate of 100 μl/min. The complex was allowed to dissociate for 10 minutes. The surface was regenerated with a 30 second injection of 10 mM magnesium chloride leaving the surface ready for another round of anti-PDGF antibody capture and PDGF binding kinetics.
On the technique in general: In SPR one partner is held on a chip, and binding of the other changes the refractive index at the surface.

Experiment [2] concerns the target T2, human PDGF-BB (human, UniProt P01127 82-190).
T2 construct: Recombinant human PDGF-BB homodimer, bought (Biosource PHG0043; R&D Systems); also called hPDGF-BB; huBB
The description is as above. The protocol:
as §1, §2

The target of experiment [3] is T3, rat PDGF-BB (rat, UniProt Q05028 74-182).
T3 construct: also called ratBB
The experiment is described as above. The protocol:
as §1, §2

The target in experiment [4] is T2, human PDGF-BB. As to the kind of experiment: cell-based or functional assay.
The target in experiment [5] is T4, human PDGF-AB (human, UniProt P04085 87-211, limits assumed).
T4 construct: Heterodimer of PDGF-A and PDGF-B, bought; also called huAB; Hu PDGF-AB
As to the kind of experiment: SPR (Biacore 3000), antibody captured via anti-human IgG, PDGF injected. As to the method: (§3) FIG. 20, comprising panels A through D, depicts Biacore sensorgrams showing the binding kinetics of MOR8457-16 to different PDGF isoforms. MOR8457-16 was captured onto CM5 chips using an anti-human IgG antibody. The binding kinetics of each PDGF isoform was assessed by flowing different concentrations of each PDGF isoform over the captured MOR8457-16 surface. The concentrations of Hu-PDGF-BB (A) and Mu-PDGF-BB (C) were 0.25, 0.5, and 1 nM, and the concentrations for Hu-PDGF-AB (B) and Rat-PDGF-BB (D) were 0.5 and 1 nM. Each sensorgram is one representative of two independent experiments. Kinetics data were double referenced and fit using Biacore evaluation software version 4.1.
(§4) The binding affinities of MOR8457-16 to different PDGF isoforms were determined as previously described (Example 6) using a Biacore 3000 (GE Healthcare, Piscataway N.J.). Briefly, an anti-human IgG (GE Healthcare) antibody was immobilized in flow cells of a CM5 sensor chip between 8,000-10,000 resonance units (RU) using amine coupling as directed by the manufacturer. Test antibodies were diluted into PBS-NET (10 mM Phosphate pH 7.4, 287 mM NaCl, 2.7 mM KCl, 3.2 mM EDTA, 0.01% Tween-20) to 0.5 ug/mL and injected over the anti-human antibody surface for 30 seconds resulting in a stable anti-PDGF surface between 82-122 RU. PDGF proteins were diluted to 1 nM in PBS-NET and serially diluted two-fold to 0.25 nM. Each concentration of PDGF was then injected over the antibody surface for 2 minutes at a flow rate of 100 ul/min. The complex was allowed to dissociate for 10 minutes. The surface was regenerated with a 30 second injection of 3M magnesium chloride leaving the surface ready for another round of anti-PDGF antibody capture and PDGF binding kinetics. Kinetic data was double referenced (D. G. Myszka et al., J. Mol. Recognit. 12:279, 1999) using Scrubber2 software (Bio-Logic Software), then fit to a 1:1 binding model using Biacore evaluation software version 4.1. Protein concentrations of all PDGF isoforms were corrected with active concentrations determined under the condition of limiting mass transport (Karlsson et al., METHODS: A companion to Methods in Enzymology 6:99-110, 1994). Results shown were averages of two independent binding studies.

In experiment [6] the target is T1, mouse PDGF-BB. The experiment is described as above. As to the method: as §3, §4
In experiment [7] the target is T2, human PDGF-BB. The experiment is described as above. As to the method:
as §3, §4

For experiment [8], the target named is T3, rat PDGF-BB. The experiment is described as above. As to the method: as §3, §4
The next experiment addresses human PDGF-AA (human, UniProt P04085 87-211, limits assumed). Description: SPR (Biacore), antibody captured. The protocol: as §2, with “kinetics. Kinetic data were double referenced (Myszka et al., 1999, J. Mol. Recognit. 12 279) using scrubber2 software (Bio-Logic Software), then fit to a 1:1 binding model using Biacore evaluation software version 4.1. The results shown were an average of three independent binding studies.” for “kinetics.”

A further experiment addresses human PDGF-DD (human, UniProt Q9GZP0 250-370, limits assumed). As to the kind of experiment: SPR (Biacore), antibody captured. The protocol:
as §2, with “kinetics. Kinetic data were double referenced (Myszka et al., 1999, J. Mol. Recognit. 12 279) using scrubber2 software (Bio-Logic Software), then fit to a 1:1 binding model using Biacore evaluation software version 4.1. The results shown were an average of three independent binding studies.” for “kinetics.”

For experiment [9], the target named is T4, human PDGF-AB. Description: SPR (Biacore). As to the method: as §2, with “kinetics. […]” for “kinetics.”
Experiment [10] addresses T4, human PDGF-AB. As to the kind of experiment: SPR (Biacore 2000), antibody captured via anti-human IgG, PDGF injected. As to the method:
as §1, §2

T1 sequence (P31240 82-190 limits assumed): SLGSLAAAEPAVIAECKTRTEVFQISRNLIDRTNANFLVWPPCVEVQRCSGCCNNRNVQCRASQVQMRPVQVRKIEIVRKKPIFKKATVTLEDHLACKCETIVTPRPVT
T3 sequence (Q05028 74-182 limits assumed): as the sequence (P31240 82-190 limits assumed) above, with I83V, I102V counted along it
T2 sequence (P01127 82-190 limits assumed): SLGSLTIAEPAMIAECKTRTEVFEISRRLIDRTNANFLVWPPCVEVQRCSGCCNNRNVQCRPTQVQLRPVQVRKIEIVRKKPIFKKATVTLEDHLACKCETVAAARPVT
T4 sequence (chain, as listed by the source limits assumed, chain 2 of 2, other chains not shown): as the sequence (P01127 82-190 limits assumed) above
human PDGF-DD, sequence (Q9GZP0 250-370 limits assumed): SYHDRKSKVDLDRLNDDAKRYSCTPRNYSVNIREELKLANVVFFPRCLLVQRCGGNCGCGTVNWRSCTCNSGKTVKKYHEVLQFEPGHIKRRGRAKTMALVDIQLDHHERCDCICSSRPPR

B1: MOR8457-GL-hIgG1-3m (antibody, V domains shown)
VH: EVQLLESGGGLVQPGGSLRLSCAASGFTFSSYAMSWVRQAPGKGLEWVSYISDDGSLKYYADSVKGRFTISRDNSKNTLYLQMNSLRAEDTAVYYCAKHPYWYGGQLDLWGQGTLVTVSS
VL: SYELTQPPSVSVSPGQTASITCSGDSLGSYFVHWYQQKPGQSPVLVIYDDSNRPSGIPERFSGSNSGNTATLTISGTQAMDEADYYCSAFTHNSDVFGGGTKLTVLG
notes: Germlined VH and VL, human IgG1-3m, wild type human lambda
In the experiment with mouse PDGF-BB [1], B1 had an equilibrium dissociation constant (Kd) of 0.004 nM, a dissociation rate constant (koff) of 0.0002 s⁻¹ and a kon of 5.3e+07 M⁻¹ s⁻¹. In the experiment with human PDGF-BB [2], this molecule registered a dissociation constant (Kd) of 0.013 nM, a koff of 0.00019 s⁻¹ and an association rate constant (kon) of 1.5e+07 M⁻¹ s⁻¹. In the experiment with rat PDGF-BB [3], the Kd was found to be 0.015 nM, the koff was found to be 0.00024 s⁻¹ and the kon amounted to 1.7e+07 M⁻¹ s⁻¹. In the experiment with human PDGF-BB [4], the “IC50, inhibition of PDGF-BB (2.5 ng/ml) stimulated mesangial cell proliferation” value is 0.02 nM.

B2: MOR8457-16 (antibody, human IgG1, lambda, V domains shown)
VH: EVQLLQSGGGLVKPGGSLRLSCAASGFTFSSYAMSWVRQAPGKGLEWVSYISDDGSLKYYADSVKGRFTISRDNSKNTLYLQMNSLRAEDTAVYYCARHPYWYGGQLDLWGQGTLVTVSS
VL: SYELTQPPSVSVSPGQTASITCSGDSLGSYFVHWYQQKPGQSPVLVIYDDSKRPSGIPERFSGSNSGNTATLTISGTQAMDEADYYCSAFTHNSDVFGGGTKLTVLG
notes: Engineered variant of MOR8457-GL: heavy E6Q, Q13K; light N53K (Kabat); human IgG1-3m; also called MOR8547-16
In the case of B2, the Kd was approximately 0.00802 nM with human PDGF-AB [5], 0.00862 nM with mouse PDGF-BB [6], 0.00975 nM with human PDGF-BB [7] and 0.00888 nM with rat PDGF-BB [8]. Besides, the koff with human PDGF-AB [5] was less than 1e-05 s⁻¹; in the experiment with mouse PDGF-BB [6], 0.00018 s⁻¹; with human PDGF-BB [7] it was 0.000169 s⁻¹; in the experiment with rat PDGF-BB [8] it was 0.000114 s⁻¹. The kon with human PDGF-AB [5] was determined as 3.39e+06 M⁻¹ s⁻¹; with mouse PDGF-BB [6] it was 2.16e+07 M⁻¹ s⁻¹; with human PDGF-BB [7] it was 1.73e+07 M⁻¹ s⁻¹; in the experiment with rat PDGF-BB [8] it was 1.29e+07 M⁻¹ s⁻¹. Also, the “IC50, inhibition of PDGF-BB (2.5 ng/ml) stimulated mesangial cell proliferation” value with human PDGF-BB [4] was determined as 0.014 nM.

B3: MOR8457-IKR-hIgG1-3m (antibody)
heavy: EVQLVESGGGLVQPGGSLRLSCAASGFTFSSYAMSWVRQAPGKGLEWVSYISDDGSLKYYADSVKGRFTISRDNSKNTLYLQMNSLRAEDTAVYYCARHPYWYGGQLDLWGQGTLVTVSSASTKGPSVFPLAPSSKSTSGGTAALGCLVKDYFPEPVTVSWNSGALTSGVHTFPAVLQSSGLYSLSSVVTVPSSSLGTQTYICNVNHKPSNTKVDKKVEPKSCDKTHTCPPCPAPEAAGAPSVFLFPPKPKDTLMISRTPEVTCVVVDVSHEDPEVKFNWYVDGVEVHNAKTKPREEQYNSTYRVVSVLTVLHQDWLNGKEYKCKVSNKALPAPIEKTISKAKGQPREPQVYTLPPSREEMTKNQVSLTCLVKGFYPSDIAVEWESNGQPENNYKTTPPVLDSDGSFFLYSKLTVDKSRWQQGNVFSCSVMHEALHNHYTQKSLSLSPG
light: SYELTQPPSVSVAPGQTARISCSGDSLGSYFVHWYQQKPGQAPVLVIYDDSNRPSGIPERFSGSNSGNTATLTISGTQAEDEADYYCSAFTHNSDVFGGGTKLTIKRQPKAAPSVTLFPPSSEELQANKATLVCLISDFYPGAVTVAWKADSSPVKAGVETTTPSKQSNNKYAASSYLSLTPEQWKSHRSYSCQVTHEGSTVEKTVAPTECS
notes: also called MOR8457-IKR-IgG1-3m
In the case of B3, the binding result with human PDGF-AA and with human PDGF-DD was “no binding (tested: 0.25-1 nM PDGF)” in each case. Moreover, the “fold reduction in binding against PDGF-BB” value in the experiment with human PDGF-AB [9] was approximately 3 fold. Moreover, the Kd is 0.069 nM with human PDGF-AB [10], 0.01 nM with mouse PDGF-BB [1], 0.028 nM with human PDGF-BB [2] and 0.025 nM with rat PDGF-BB [3]. Also, the koff came to 0.00045 s⁻¹ in the experiment with human PDGF-AB [10], 0.000293 s⁻¹ with mouse PDGF-BB [1], 0.000362 s⁻¹ in the experiment with human PDGF-BB [2] and 0.000447 s⁻¹ with rat PDGF-BB [3]. Further, the on-rate constant (kon) with human PDGF-AB [10] was determined as 6.5e+06 M⁻¹ s⁻¹; with mouse PDGF-BB [1] it was 2.95e+07 M⁻¹ s⁻¹; in the experiment with human PDGF-BB [2] it was 1.27e+07 M⁻¹ s⁻¹; with rat PDGF-BB [3], 1.77e+07 M⁻¹ s⁻¹. Also, in the experiment with human PDGF-BB [4], the “IC50, inhibition of PDGF-BB induced human mesangial cell proliferation (BrdU incorporation)” value was found to be 0.0134 nM.

As a reminder, the Kd is the constant that tells how readily two partners part at equilibrium. Read a high Kd as weaker binding. As usually defined, the koff is the rate constant with which the complex falls apart. As a reminder, the kon is the second-order rate constant of association. Lower therefore signals slower complex formation.
